Drawing on article PMC7545189, “Structural characterization of the ICOS/ICOS-L immune complex reveals high molecular mimicry by therapeutic antibodies” (Nature Communications, 2020), this text covers Kd, koff and kon for one variant.

B1: human ICOS ectodomain (residues 21-138), untagged, disulfide-linked homodimer [human] / human ICOS-L ectodomain (residues 19-248), His-tagged, immobilised on Ni-NTA biosensors [human] (parent)
chain 1: EINGSANYEMFIFHNGGVQILCKYPDIVQQFKMQLLKGGQILCDLTKTKGSGNTVSIKSLKFCHSQLSNNSVSFFLYNLDHSHANYYFCNLSIFDPPPFKVTLTGGYLHIYESQLCCQ
chain 2: DTQEKEVRAMVGSDVELSCACPEGSRFDLNDVYVYWQTSESKTVVTYHIPQNSSLENVDSRYRNRALMSPAGMLRGDFSLRLFNVTPQDEQKFHCLVLSQSLGFQEVLSVEVTLHVAANFSVPVVSAPHSPSQDELTFTCTSINGYPRPNVYWINKTDNSLLDQALQNDTVFLNMRGLYDVVSVLRIARTPSVNIGCCIENVLLQQNLTVGSQTGNDIGERDKITENPVS

Variants of B1 are the subject of one test. Put plainly: BLI. The note with it: with human ICOS-L ectodomain (residues 19-248), parent: 9.8 nM, read off a plot.
As to chain 1 EINGSANYEMFIFHNGGVQILCKYPDIVQQFKMQLLKGGQILCDLTKTKGSGNTVSIKSLKFCHSQLSNNSVSFFLYNLDHSHANYYFCQLSIFDPPPFKVTLTGGYLHIYESQLCCQ [chain 1 N90Q], the Kd (in general, a measure of binding affinity in units of concentration) stood at 2.7 nM.

Staying with this test, now noted: with human ICOS-L ectodomain (residues 19-248), parent: 0.0033, read off a plot.
Consider chain 1 EINGSANYEMFIFHNGGVQILCKYPDIVQQFKMQLLKGGQILCDLTKTKGSGNTVSIKSLKFCHSQLSNNSVSFFLYNLDHSHANYYFCQLSIFDPPPFKVTLTGGYLHIYESQLCCQ [chain 1 N90Q], for which the off-rate constant (koff) (commonly the rate constant with which the complex falls apart) came out at 0.0021 s⁻¹.

Staying with this test, now noted: with human ICOS-L ectodomain (residues 19-248), parent: 3.3e+05, read off a plot.
Consider chain 1 EINGSANYEMFIFHNGGVQILCKYPDIVQQFKMQLLKGGQILCDLTKTKGSGNTVSIKSLKFCHSQLSNNSVSFFLYNLDHSHANYYFCQLSIFDPPPFKVTLTGGYLHIYESQLCCQ [chain 1 N90Q], for which the kon (as a rule, a measure of how fast the partners come together) worked out at 730000 M⁻¹ s⁻¹.
